Test results taken from the supplement of paper PMC10567573.

B1: NECAB1 (parent)
chain: FSPNSPQFNVSGPGLLEEDNQWMT

Variants of: B1
Assay: protein stability index of a GFP-peptide fusion (GPS, HEK-293T) (PSI 1-6); higher = more stable
Conditions: c terminus: a fixed tail appended
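Note: lentivirally expressed fusions sorted by FACS into six bins by GFP to DsRed ratio, PSI derived from sequencing read proportions per bin multiplied by bin number.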

| Variant | protein stability index |
| --- | --- |
| FTPNSPQFNVSGPGLLEEDNQWMT [S2T] | 2.23 |
| FVPNSPQFNVSGPGLLEEDNQWMT [S2V] | 2.66 |
| FMPNSPQFNVSGPGLLEEDNQWMT [S2M] | 3.39 |
| FPPNSPQFNVSGPGLLEEDNQWMT [S2P] | 2.47 |
| FEPNSPQFNVSGPGLLEEDNQWMT [S2E] | 4.58 |
| FRPNSPQFNVSGPGLLEEDNQWMT [S2R] | 3.65 |
| FCPNSPQFNVSGPGLLEEDNQWMT [S2C] | 2.63 |
| FSVNSPQFNVSGPGLLEEDNQWMT [P3V] | 2.88 |
| FSWNSPQFNVSGPGLLEEDNQWMT [P3W] | 2.04 |
| FSQNSPQFNVSGPGLLEEDNQWMT [P3Q] | 3.26 |
| FSYNSPQFNVSGPGLLEEDNQWMT [P3Y] | 2.62 |
| FSDNSPQFNVSGPGLLEEDNQWMT [P3D] | 2.24 |
| FSSNSPQFNVSGPGLLEEDNQWMT [P3S] | 2.68 |
| FSPNSPQFNVSGPGLLEEDNQWMK [T24K] | 2.37 |
| FSPNSPQFNVSGPGLLEEDNQWMG [T24G] | 3.01 |
| FSPNSPQFNVSGPGLLEEDNQWMC [T24C] | 2.91 |
| FSPNSPQFNVSGPGLLEEDNQWMN [T24N] | 2.84 |
| FSPNSPQFNVSGPGLLEEDNQWMA [T24A] | 2.82 |
| FSPNSPQFNVSGPGLLEEDNQWMI [T24I] | 2.69 |
| FSPNSPQFNVSGPGLLEEDNQWMY [T24Y] | 2.57 |
| FSPNSPQFNVSGPGLLEEDNQWMV [T24V] | 2.36 |
| FSPNSPQFNVSGPGLLEEDNQWMM [T24M] | 2.4 |
| LSPNSPQFNVSGPGLLEEDNQWMT [F1L] | 4.55 |
| VSPNSPQFNVSGPGLLEEDNQWMT [F1V] | 4.34 |

| Variant | protein stability index |
| --- | --- |
| ISPNSPQFNVSGPGLLEEDNQWMT [F1I] | 4.33 |
| YSPNSPQFNVSGPGLLEEDNQWMT [F1Y] | 3.25 |
| PSPNSPQFNVSGPGLLEEDNQWMT [F1P] | 4.51 |
| WSPNSPQFNVSGPGLLEEDNQWMT [F1W] | 3.85 |
| CSPNSPQFNVSGPGLLEEDNQWMT [F1C] | 3.13 |
| QSPNSPQFNVSGPGLLEEDNQWMT [F1Q] | 4.7 |
| RSPNSPQFNVSGPGLLEEDNQWMT [F1R] | 4.33 |
| FSPHSPQFNVSGPGLLEEDNQWMT [N4H] | 2.53 |
| FSPPSPQFNVSGPGLLEEDNQWMT [N4P] | 3.53 |
| FSPESPQFNVSGPGLLEEDNQWMT [N4E] | 3.59 |
| FSPRSPQFNVSGPGLLEEDNQWMT [N4R] | 2.82 |
| FSPISPQFNVSGPGLLEEDNQWMT [N4I] | 2.67 |
| FSPCSPQFNVSGPGLLEEDNQWMT [N4C] | 2.26 |
| FSPYSPQFNVSGPGLLEEDNQWMT [N4Y] | 2.33 |
| FSPLSPQFNVSGPGLLEEDNQWMT [N4L] | 2.64 |
| FSPFSPQFNVSGPGLLEEDNQWMT [N4F] | 2.4 |
| FSPGSPQFNVSGPGLLEEDNQWMT [N4G] | 2.53 |
| FSPNSPQFNVSGPGLMEEDNQWMT [L16M] | 2.66 |
| FSPNSPQFNVSGPGLREEDNQWMT [L16R] | 3.12 |
| FSPNSPQFNVSGPGLFEEDNQWMT [L16F] | 2.42 |
| FSPNSPQFNVSGPGLSEEDNQWMT [L16S] | 3.23 |
| FSPNSPQFNVSGPGLIEEDNQWMT [L16I] | 2.91 |
| FSPNSPQFNVSGPGLVEEDNQWMT [L16V] | 3.18 |
| FSPNSPQFNVSGPGLDEEDNQWMT [L16D] | 3.94 |

| Variant | protein stability index |
| --- | --- |
| FSPNSPQFNVNGPGLLEEDNQWMT [S11N] | 3.31 |
| FSPNSPQFNVHGPGLLEEDNQWMT [S11H] | 2.5 |
| FSPNSPQFNVPGPGLLEEDNQWMT [S11P] | 3.19 |
| FSPNSPQFNVIGPGLLEEDNQWMT [S11I] | 2.9 |
| FSPNSPQFNVTGPGLLEEDNQWMT [S11T] | 2.79 |
| FSPNSPQFNVLGPGLLEEDNQWMT [S11L] | 2.91 |
| FSPNSPQFNVFGPGLLEEDNQWMT [S11F] | 2 |
| FSPNSPQFNVSGPGLLEEDVQWMT [N20V] | 2.58 |
| FSPNSPQFNVSGPGLLEEDFQWMT [N20F] | 2.71 |
| FSPNSPQFNVSGPGLLEEDAQWMT [N20A] | 3.29 |
| FSPNSPQFNVSGPGLLEEDLQWMT [N20L] | 2.27 |
| FSPNSPQFNVSGPGLLEEDKQWMT [N20K] | 2.54 |
| FSPNSPQFNVSGPGLLEEDHQWMT [N20H] | 2.62 |
| FSPNSPQFNVSGPGLLEEDYQWMT [N20Y] | 2.26 |
| FSPNSPQFNVSGPGLLEEDEQWMT [N20E] | 3.73 |
| FSPNSPQFNVSGPGLLEEDQQWMT [N20Q] | 2.84 |
| FSPNSPQFNVSGPGLLEEDIQWMT [N20I] | 2.24 |
| FSPNSPQFNVSGPGLLEEDTQWMT [N20T] | 3.19 |
| FSPNSPGFNVSGPGLLEEDNQWMT [Q7G] | 2.74 |
| FSPNSPLFNVSGPGLLEEDNQWMT [Q7L] | 1.45 |
| FSPNSPIFNVSGPGLLEEDNQWMT [Q7I] | 2.11 |
| FSPNSPTFNVSGPGLLEEDNQWMT [Q7T] | 3.09 |
| FSPNSPVFNVSGPGLLEEDNQWMT [Q7V] | 2.22 |
| FSPNSPHFNVSGPGLLEEDNQWMT [Q7H] | 2.94 |

| Variant | protein stability index |
| --- | --- |
| FSPNSPDFNVSGPGLLEEDNQWMT [Q7D] | 4.25 |
| FSPNSPEFNVSGPGLLEEDNQWMT [Q7E] | 3.88 |
| FSPNSPAFNVSGPGLLEEDNQWMT [Q7A] | 1.92 |
| FSPNSPRFNVSGPGLLEEDNQWMT [Q7R] | 2.07 |
| FSPNSPPFNVSGPGLLEEDNQWMT [Q7P] | 2.9 |
| FSPNSPQFNVSGGGLLEEDNQWMT [P13G] | 2.89 |
| FSPNSPQFNVSGFGLLEEDNQWMT [P13F] | 2.29 |
| FSPNSPQFNVSGHGLLEEDNQWMT [P13H] | 2.62 |
| FSPNSPQFNVSGCGLLEEDNQWMT [P13C] | 2.49 |
| FSPNSPQFNVSGWGLLEEDNQWMT [P13W] | 1.7 |
| FSPNSPQFNVSGKGLLEEDNQWMT [P13K] | 2.71 |
| FSPNSPQFNVSGQGLLEEDNQWMT [P13Q] | 3.12 |
| FSPNSPQFNVSGAGLLEEDNQWMT [P13A] | 3.15 |
| FSPNSPQFNVSKPGLLEEDNQWMT [G12K] | 2.85 |
| FSPNSPQFNVSMPGLLEEDNQWMT [G12M] | 3.18 |
| FSPNSPQFNVSCPGLLEEDNQWMT [G12C] | 2.04 |
| FSPNSPQFNVSNPGLLEEDNQWMT [G12N] | 2.77 |
| FSPNSPQFNVSVPGLLEEDNQWMT [G12V] | 2.86 |
| FSPNSPQFNVSIPGLLEEDNQWMT [G12I] | 2.42 |
| FSPNSPQFNVSYPGLLEEDNQWMT [G12Y] | 2.14 |
| FSPNSPQFNVSPPGLLEEDNQWMT [G12P] | 2.86 |
| FSPNSPQFNVSEPGLLEEDNQWMT [G12E] | 3.12 |
